For assay [1], the target named is human serum albumin (human) (UniProt P02768). The assay is described as follows: screening ELISA.
In assay [2] the target is T1, recombinant biotinylated CD71 extracellular domain (Sino Biologics) with an N-terminal 6His tag (human), P02786. Kind of assay: screening ELISA. For orientation: In an ELISA, binding on a coated surface is turned into a signal by an enzyme label.
The target in assay [3] is T1, recombinant biotinylated CD71 …. Kind of assay: screening ELISA, ratio.

human serum albumin (human), sequence (P02768 25-609 limits assumed): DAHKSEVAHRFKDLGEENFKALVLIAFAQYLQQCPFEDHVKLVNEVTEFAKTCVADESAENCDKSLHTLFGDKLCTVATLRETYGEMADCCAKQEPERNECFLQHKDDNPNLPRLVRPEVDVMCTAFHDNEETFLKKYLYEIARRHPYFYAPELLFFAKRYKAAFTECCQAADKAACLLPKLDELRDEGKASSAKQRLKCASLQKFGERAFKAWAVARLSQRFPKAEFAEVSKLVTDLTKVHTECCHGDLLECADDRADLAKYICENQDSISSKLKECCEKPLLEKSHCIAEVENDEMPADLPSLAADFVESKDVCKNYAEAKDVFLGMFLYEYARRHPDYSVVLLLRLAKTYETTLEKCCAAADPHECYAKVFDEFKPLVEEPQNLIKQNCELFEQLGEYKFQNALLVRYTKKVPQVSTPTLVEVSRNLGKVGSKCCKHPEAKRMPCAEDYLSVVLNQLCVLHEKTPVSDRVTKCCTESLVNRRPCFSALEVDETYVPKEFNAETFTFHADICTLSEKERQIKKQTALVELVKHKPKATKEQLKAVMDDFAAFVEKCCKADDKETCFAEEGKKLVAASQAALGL
T1 sequence (P02786 other isoform, or with tags, fused parts or gaps): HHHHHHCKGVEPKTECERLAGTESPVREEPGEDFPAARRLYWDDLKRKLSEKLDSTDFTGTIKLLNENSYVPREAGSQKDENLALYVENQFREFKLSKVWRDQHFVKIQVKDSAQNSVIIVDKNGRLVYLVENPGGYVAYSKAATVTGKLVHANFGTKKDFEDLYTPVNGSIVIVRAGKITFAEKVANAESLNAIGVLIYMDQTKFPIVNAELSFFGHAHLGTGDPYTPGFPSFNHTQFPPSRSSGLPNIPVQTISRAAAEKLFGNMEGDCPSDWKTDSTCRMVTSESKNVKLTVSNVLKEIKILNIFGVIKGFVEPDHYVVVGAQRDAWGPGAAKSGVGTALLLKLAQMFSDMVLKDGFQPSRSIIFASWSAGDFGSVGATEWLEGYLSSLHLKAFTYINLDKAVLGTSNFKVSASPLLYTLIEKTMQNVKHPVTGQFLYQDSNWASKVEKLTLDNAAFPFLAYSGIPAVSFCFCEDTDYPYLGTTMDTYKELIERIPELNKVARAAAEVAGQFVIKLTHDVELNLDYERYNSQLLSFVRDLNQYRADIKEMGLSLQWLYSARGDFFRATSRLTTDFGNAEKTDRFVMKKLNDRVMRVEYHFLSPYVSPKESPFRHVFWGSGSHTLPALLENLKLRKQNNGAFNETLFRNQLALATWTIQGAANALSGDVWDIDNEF

B1: SEQ ID NO 82 (designed binder)
chain: MLPAPKNLVVSRVTEDSARLSWTAPDAAFDSFAIAYVEWWKLGEAIVLTVPGSERSYDLTGLKPGTEYVVPIPGVKGGGHSSPLSAIFTT
Take B1: the HSA in assay [1] turned out to be 18900.

B2: SEQ ID NO 280 (designed binder)
chain: MLPAPKNLVVRXVTEDSARLSWTAPDAAFDSFEIEYDEPYRGGEAIVLTVPGSERSYDLTSLKPGTEYPVSIGGVKGGITSDPLSAIFTT
modifications: X: residue not identified in the source; also: C-terminal poly-His tag, letters not given here
B2: the hCD71 in assay [2] was determined as 446000. Further, the hCD71:HSA in assay [3] was determined as 21.

B3: SEQ ID NO 301 (designed binder)
chain: MLPAPKNLVVSRVTEDSARLSWTAPDAAFDSFEIEYDEPYRGGEAIVLTVPGSERSYDLTSLKPGTEYPVSIGGVKGGITSDPLSAIFTT
For the molecule B3, the HSA in assay [1] came to 12000.

B4: SEQ ID NO 60 (designed binder)
chain: MLPAPKNLVVSRVTEDSARLSWTAPDAAFDSFTIWYAEAIGHGEAIVLTVPGSERSYDLTGLKPGTEYWVDIWGVKGGQQSKPLSAIFTT
Take B4: in assay [1], the HSA worked out at 6480.

B5: SEQ ID NO 61 (designed binder)
chain: MLPAPKNLVVSRVTEDSARLSWRVESRTFDSFLIQYQESEKVGEAIVLTVPGSERSYDLTGLKPGTEYTVSIYGVVWDTRDNPISNPLSAIFTT
As for B5, the HSA in assay [1] came out at 10600.

B6: SEQ ID NO 308 (designed binder)
chain: MLPAPKNLVVSEVTEDSARLSWQGVARAFDSFLITYREQIFAGEVIVLTVPGSERSYDLTGLKPGTEYPVWIQGVKGGSPSAPLSAISTT
B6: the HSA in assay [1] worked out at 12300.

B7: SEQ ID NO 307 (designed binder)
chain: MLPAPKNLVVSRVTEDSARLSWTAPDAAFDSFPITYSEPAHYGEAIVLTVPGSERSYDLTGLKPGTEYHVGIMGVKGGVFSSPLSAIFTT
Turning to B7, in assay [1], the HSA was determined as 4350.

B8: SEQ ID NO 57 (designed binder)
chain: MLPAPKNLVVSRVTEDSARLSWTAPDAAFDSFSIKYLEWWQDGEAIVLTVPGSERSYDLTGLKPGTEYYVHIAGVKGGYRSYPLSAIFTT
B8 returned an HSA in assay [1] of 16900.

B9: SEQ ID NO 309 (designed binder)
chain: MLPAPKNLVVSRVTEDSARLSWTAPDAAFDSFIIDYLELDQEGEAIVLTVPGSERSYDLTGLKPGTEYAVYIFGVKGGYPSTPLSAIFTT
B9 registered an HSA in assay [1] of 2850.

B10: SEQ ID NO 302 (designed binder)
chain: MLPAPKNLVVSRVTEDSARLSWTAPDAAFDSFDIYYPEYYDRGEAIVLTVPGSERSYDLTGLKPGTEYTVYIDGVKGGGGSGPLSAIFTT
In assay [1], B10 had an HSA of 21200.

B11: SEQ ID NO 299 (designed binder)
chain: MLPAPKNLVVSRVTEDSARLSWTAPDAAFDSFLIEYWESVGYGEAIVLTVPGSERSYDLTGLKPGTEYWVGIYGVKGGYYSRPLSAIFTT
In the case of B11, the HSA in assay [1] was 2200.

B12: SEQ ID NO 306 (designed binder)
chain: MLPAPKNLVVSRVTEDSARLSWTAPDAAFDSFYIEYFETQGYGEAIVLTVPGSERSYDLTGLKPGTEYYVAIYGVKGGYLSRPLSAIFTT
With B12, the HSA in assay [1] was 2250.

B13: SEQ ID NO 34 (designed binder)
chain: MLPAPKNLVVSRVTEDSARLSWTAPDAAFDSFAITYIEWWDVGEAIGLKVPGSERSYDLTGLKPGTEYRVHIQGVKGGNNSYPLDALFTT
Take B13: in assay [1], the HSA came to 25900.

B14: SEQ ID NO 300 (designed binder)
chain: MLPAPKNLVVSRVTEDSARLSWTAPDAAFDSFFIGYLEPQPPGEAIVLTVPGSERSYDLTGLKPGTEYNVTIHGVKGGTPSMPLSAIFTT
B14 had an HSA in assay [1] of 4050.

B15: SEQ ID NO 303 (designed binder)
chain: MLPAPKNLVVSRVTEDSARLSWTAPDAAFDSFFIAYFEFANPGEAIVLTVPGSERSYDLTGLKPGTEYKVVIQGVKGGTPSEPLSAIFTT
In turn, B15 registered an HSA in assay [1] of 2650.

B16: SEQ ID NO 297 (designed binder)
chain: MLPAPKNLVVSRVTEDSARLSWTAPDAAFDSFLIPYAETSPSGEAITLFVPGSERSYDLTGLKPGTEYNVVIQGVKGGRPSNPLVAASTT
In turn, B16 showed an HSA in assay [1] of 52600.

B17: SEQ ID NO 305 (designed binder)
chain: MLPAPKNLVVSRVTEDSARLSWTAPDAAFDSFEIDYDEPFVYGEAIVLTVPGSERSYDLTGLKPGTEYRVFIFGVKGGNGSWPLSAIFTT
Turning to B17, the HSA in assay [1] was 25000.

B18: SEQ ID NO 298 (designed binder)
chain: MLPAPKNLVVSRVTEDSARLSWTAPDAAFDSFPIAYAEPRPDGEAIVLTVPGSERSYDLTGLKPGTEYSVLIHGVKGGLLSSPLSAISTT
For the molecule B18, the HSA in assay [1] was found to be 34000.

B19: SEQ ID NO 81 (designed binder)
chain: MLPAPKNLVVSRVTEDSARLSWTAPDAAFDSFVIEYREGAWYGEAIVLTVPGSERSYDLTGLKPGTEYAVYIPGVKGGPRSFPLSAIFTT
B19 returned an HSA in assay [1] of 28600.

The record behind these values is patent publication US20210145976A1.
